The source of these data is article PMC5492076, “β-Cyanoalanine Synthases and Their Possible Role in Pierid Host Plant Adaptation” (Insects, 2017).

Holding throughout (assay): colorimetric sulfide formation, Michaelis-Menten fit
Substrate in series [1]: N[C@@H](CS)C(=O)O
It is filed as biochemical, Anthocharis cardamines. Conditions: 6 mM KCN, 20 µM pyridoxal-5'-phosphate, Tris-HCl pH 8.5, 31 °C, 10 min. From the text: colorimetric sulfide formation, Michaelis-Menten fit on AcaBSAS3

Substrate in series [2]: N[C@@H](CS)C(=O)O
It is filed as biochemical, Aporia crataegi. Particulars: 6 mM KCN, 20 µM pyridoxal-5'-phosphate, Tris-HCl pH 8.5, 31 °C, 10 min. The source says:
colorimetric sulfide formation, Michaelis-Menten fit on AcrBSAS1

Substrate in series [3]: N[C@@H](CS)C(=O)O
It is filed as biochemical, Zygaena filipendulae. Particulars: 6 mM KCN, 20 µM pyridoxal-5'-phosphate, Tris-HCl pH 8.5, 31 °C, 10 min. From the text:
colorimetric sulfide formation, Michaelis-Menten fit on ZfBSAS2

Substrate in series [4]: N[C@@H](CS)C(=O)O
It is filed as biochemical, Spodoptera littoralis. Particulars: 6 mM KCN, 20 µM pyridoxal-5'-phosphate, Tris-HCl pH 8.5, 31 °C, 10 min. From the text:
colorimetric sulfide formation, Michaelis-Menten fit on SlBSAS2b

Substrate in series [5]: N[C@@H](CS)C(=O)O
It is filed as biochemical, Colias croceus. Particulars: 6 mM KCN, 20 µM pyridoxal-5'-phosphate, Tris-HCl pH 8.5, 31 °C, 10 min. From the text: colorimetric sulfide formation, Michaelis-Menten fit on CcBSAS3

Substrate in series [6]: N[C@@H](CS)C(=O)O
It is filed as biochemical, Plutella xylostella. Particulars: 6 mM KCN, 20 µM pyridoxal-5'-phosphate, Tris-HCl pH 8.5, 31 °C, 10 min. From the text: colorimetric sulfide formation, Michaelis-Menten fit on PxBSAS2

Substrate in series [7]: N[C@@H](CS)C(=O)O
It is filed as biochemical, Anthocharis cardamines. Conditions: 6 mM KCN, 20 µM pyridoxal-5'-phosphate, Tris-HCl pH 8.5, 31 °C, 10 min. From the text: colorimetric sulfide formation, Michaelis-Menten fit on AcaBSAS1
This is another data set of the same source.

Substrate in series [8]: N[C@@H](CS)C(=O)O
It is filed as biochemical, Spodoptera littoralis. Conditions: 6 mM KCN, 20 µM pyridoxal-5'-phosphate, Tris-HCl pH 8.5, 31 °C, 10 min. The source says:
colorimetric sulfide formation, Michaelis-Menten fit on SlBSAS2a
The source holds these as a separate data set.

Substrate in series [9]: N[C@@H](CS)C(=O)O
It is filed as biochemical, Gonepteryx rhamni. Particulars: 6 mM KCN, 20 µM pyridoxal-5'-phosphate, Tris-HCl pH 8.5, 31 °C, 30 min. From the text:
colorimetric sulfide formation, Michaelis-Menten fit on GrBSAS2

Substrate in series [10]: N[C@@H](CS)C(=O)O
It is filed as biochemical, Colias croceus. Particulars: 6 mM KCN, 20 µM pyridoxal-5'-phosphate, Tris-HCl pH 8.5, 31 °C, 10 min. The source says: colorimetric sulfide formation, Michaelis-Menten fit on CcBSAS2
The source holds these as a separate data set.

Substrate in series [11]: N[C@@H](CS)C(=O)O
It is filed as biochemical, Aporia crataegi. Conditions: 6 mM KCN, 20 µM pyridoxal-5'-phosphate, Tris-HCl pH 8.5, 31 °C, 10 min. From the text: colorimetric sulfide formation, Michaelis-Menten fit on AcrBSAS2
This is another data set of the same source.

Substrate in series [12]: N[C@@H](CS)C(=O)O
It is filed as biochemical, Anthocharis cardamines. Particulars: 6 mM KCN, 20 µM pyridoxal-5'-phosphate, Tris-HCl pH 8.5, 31 °C, 10 min. From the text:
colorimetric sulfide formation, Michaelis-Menten fit on AcaBSAS2
This is another data set of the same source.

B1: AcaBSAS3 (Anthocharis cardamines) (protein)
chain: MSDSNGIPNEIKASALDLIGNTPLVALDRLHPGPGRILAKCEFMNPGGSIKCRSSLHMIQKARERGELKPGGSVVEVTSGNQGCGLAVVCAVLGHDLTVTMSKGNSIQRVIHMEALGAKCIRYPLVQGTYGNVTFADVEEALEAATNMSEESGAFFVKQFCNLENEEAHYVTTGPEIWRQTGHRVDAFVTAVGTSGTFSGVSTFLKEQNPDVKCFVVEPEGSQPLKGCPITKPLHLLQGASYGIIPDLFKPDLMEDSISVTDKEAVHYKDLIGTKEGLFVGYTSGANVAAAVKLLNSGKLPKDAWVVTTLCDTGLKYTPVPESLIE
notes: N-terminal Strep-tag, E. coli BL21(DE3) pLysS; Strep-Tactin purified
On to B1, for which, in series [1], the Km is 0.96 (±0.04) mM and the maximal velocity (Vmax) (in general, the top rate of the reaction or transport when substrate is in excess) stood at 1.41 µmol/min/mg.

B2: AcrBSAS1 (Aporia crataegi) (protein)
chain: MGQTCEKQTDIRSSALELIGNTPLVALDRLYPGPGRLLAKCESMNPGGSIKDRASYHMIKKARLRGELKPGDPVIEATSGNQGCGLAVSCAVLGHPLTLTMSKGNTVQRAIHMEALGATCVRVPQVEGTYGHVTNADLMVVKKEAIVLQQKTGAFFVNQFLNEDNVEAHYISTGPEIWHQTAGRVNAFVTAVGTSGTFMGVSRFLKKQNPKIQCYVVEPEGCEPIKGKPIIKASNTLQGSSYGLVPDLFKYEVMSETITVTDEEAQEYMHLIGKKEGLYVGYTSGANVCAAVKLLKSGKLSKKAWVVTILFDTGLKYTPVPSLM
notes: as for B1
For B2, in series [2], the Km is on record as 0.26 (±0.00) mM and the maximal velocity (Vmax) worked out at 14 µmol/min/mg.

B3: ZfBSAS2 (Zygaena filipendulae) (protein)
chain: MSPPVLQHHDEIKSSALELIGNTPIVALDRLYTGPGRILAKCEFMNPGASIKCRSSLYMIQKALDEKLLKPGEPVLEVTSGNQGCGLAVVCAVLQHPLTLTMSKGNSAQRAVHMAALGAKCIRVPQVEGTYGNVTLADVKAAEAEGLRIVEKTGAYYVNQFNNEANTLAHYETTGPEIWRQTGGRVDAFVATVGTAGTFTGTSKYLKEKNPELKAYVVEPQGSEPIKQLPITKPLHVLQGSGYGCIPNLFNYSTMNDTISVTDEESKHYKKLLGTKEGLYVGYTSGANVAAAVKLLESGTLPDDAWVVTTLNDSGLKYSPTPDEIELSD
notes: as for B1
As for B3, in [3], the Km is 0.74 (±0.04) mM and the maximal velocity (Vmax) worked out at 2.99 µmol/min/mg.

B4: SlBSAS2b (Spodoptera littoralis) (protein)
chain: MAPVEKNLKDEQPKYLKGDIKASALELIGNTPMVALDRLYSGPGRILAKCEFMNPGASIKCRSSLSMINRAIASGELKPGEPVVEITSGNQGCGLAVVCAVLGHPLTLAMSKGNSVQRALHMEALGAKVVRVDQVKGTYGNVTYADVEVVREVCDKLVKDQNAYFVNQFSNEANADAHYESTGPEIWQQTGHHVDAFVAAVGTAGTFMGTSRYLKEQNPNIKAYVVEPAGAEAIAGCEVTKPLHLLQGSGYGLIPDLLKYEFMDGSLSVTDEEAVKYMKLIGEKEGLYVGYTSGANVAAAIKLLESGLVPEDAWVVTVLADTGLKYTPVPEELMK
notes: as for B1
As for B4, in [4], the Km is 1.07 (±0.03) mM and the Vmax stood at 11.6 µmol/min/mg.

B5: CcBSAS3 (Colias croceus) (protein)
chain: MTSSTNFPTDIKSSALELIGNTPLVALDRLHPGPGRILAKCEFMNPGASIKCRSSLHMIQKARERGDLKPGDPVIEVTSGNQGCGLAVVCAVLGHPLTLTMSKGNSVQRAIHMEALGAKCIRYPQVEGTYGNITYADVSIPIEAAVTLAEETGAYFVQQLCNEDNSAAHYEATGPEIWRQTGHRVDGFVTAVGTSGTFSGVSKFLKEQNPEILCCVVEPAGSEPLKGCPIVKPKHLLQGSSYGIVPNLFKPEFMDESISVTDEETEHYKDLIGKKEGLYVGYTSGANVAAAVKLLKSGKLPKDAWVVTVLCDSGLKYTPVPESLIN
notes: as for B1
For B5, in [5], the Km is 1.50 (±0.08) mM and the Vmax is 0.43 µmol/min/mg.

B6: PxBSAS2 (Plutella xylostella) (protein)
chain: MSTIDGVIDGVHNEVKASALELIGNTPLVALDRLHPGPGRLLVKCEFMNPGASLKDRSSLHMIQDARAEGRLAPGAPVVEITSGNQGCGLAVVCAVLGHPLTLTMSAGNSVQRALHMEALGARCVRVPQVEGRYGSVTFADVEVCEKEGHKIVEETGAFLVNQFHNPSNSLSHYKMMGPEIWRQTGGRVDGFVATMGTGGVFTGTSRFLKEQNKDVKTYVVEPAGAEVIKGDAITKPLHLLQGSGYGYVPSLFDRSLLDGTLAVTDEETLEYRRLIGEKEGLFVGYTSAANVAAAARLLRSGQLPPDAWVVTILCDTGLKYC
notes: as for B1
For the protein B6, in series [6], the Km is reported as 0.52 (±0.04) mM and the maximum rate (Vmax) came out at 3.72 µmol/min/mg.

B7: AcaBSAS1 (Anthocharis cardamines) (protein)
chain: MGQACEKQTDIRASAIELIGNTPLVALDRLHPGPGRILAKCEFMNPGGSIKCRASLHMIQKARLRGTLKPGDPVVEATSGNQGCGLAVACAVLGHPLTLTMSKGNTVQRAIHMEALGAKCIRVPQVEGTYGNVTNADLMAAKDEAISFHEKTGAFFVKQFVNEDNVEAHYTTTGPEIWYQTGNRVDAFVTAVGTSGTFMGVSKYLKKQNPKIRCYVVEPEGCEPIKGKPITKASNTLQGSSYGVIPDLFKFEYMNETITVTDEEAEEYRDLIGSKEGLYVGYTSGANVCAAVKLLKSGKLPKNAWVVTILFDTGLKYTPVPESLM
notes: as for B1
As to B7, in [7], the Km is 0.41 (±0.01) mM and the Vmax came out at 23.8 µmol/min/mg.

B8: SlBSAS2a (Spodoptera littoralis) (protein)
chain: MAPIEKDEQPKYLEGDIKASALELIGNTPLVALDRLYTGPGRILAKCEFMNPGASIKCRSSLSMINRAIASGELKPGEPVVEITSGNQGCGLAVVCAVLGHPLTLAMSKGSSAQRALHMEALGAKCVRVDQVEGTYGNVTYADVKAVEEVGMKIVEEQNAYFVNQFHNEANADAHYKSTGPEIWKQTGHHVDAFVATVGTSGTFAGTSRYLKEQNPDIKTYVVEPAGAEAIAGCPITKPLHLLQGSGYGWIPDLFKFEHMDGTLSVTDEEAVKYMKLVGEKEGLYVGYTSGANVAAAVKLLESGLIPEDAWVVTLLNDTGLKYTPVPEELFK
notes: as for B1
For B8, in [8], the Km is 0.60 (±0.01) mM and the maximal velocity (Vmax) was found to be 1.44 µmol/min/mg.

B9: GrBSAS2 (Gonepteryx rhamni) (protein)
chain: MAKVNGIHSEIKESALDLIGNTPIVALDRLHPGPGRILAKCEFMNPGASIKCRSSLHMIQVAREKGLLKPGQPVLEVTSGNQGCGLAVVCSVMGHPLTVTMSKGNSVQRAIHMEALGAKCVRVPQVEGTYGNVTLADVKAAEQEGLRIAEETGAYYVNQFSNDDNANSHYCTTGPEIWRQTGHRVDAFVATVGTAGTFAGSSAYLKEKNPKIQCYVVEPEGSQPIRGCPITKPLHLLQGSGYGCIPNSFKFDTMDGTLSVTDEEATRYKNLIGEKEGLYVGYTSGANIAAAVKLLNSGKLPEDAWVVTLLNDSGLKYTPVPESLT
notes: as for B1
With B9, in series [9], the Km is 0.37 (±0.00) mM and the Vmax stood at 0.24 µmol/min/mg.

B10: CcBSAS2 (Colias croceus) (protein)
chain: MAKVNGIQNEIKESALDLIGNTPIVALDRLHPGPGRILAKCEFMNPGASIKCRSSLHMINKAIEKGLLKPGQSVLEVTSGNQGCGLAVVCSVMGHPLTVTMSMGNSAQRAIHMEALGAKCVRVPQVEGTYGNVTLADVKAAEKEGLRLAEEIGAYYVNQFNNEDNANSHYCTTGPEIWRQTGHRVDAFVATVGTAGTFTGSSRFLKEKNPNIQCYVVEPEGSQPIRGCAITKPLHLLQGSGYGCVPNLFNFETMDGTLSVTDEEASKYMKLIGEKEGLYVGYTSGANVAAAVKLLNSGTLPEDAWVVTLLNDSGLKYTPVPESLSGNSNNANSD
notes: as for B1
On to B10, for which, in [10], the Km is listed as 0.75 (±0.06) mM and the maximal velocity (Vmax) is 1.04 µmol/min/mg.

B11: AcrBSAS2 (Aporia crataegi) (protein)
chain: MAKVNGIKNEIKTSALELIGETPLLALDRLHPGPGRILVKCEFMNPGASIKCRSSLHMIQEARAKGLLKPGQPVLEVTSGNQGCGLAIVCAIYGHPLTVTMSKGNSLQRAIHMEALGAKCVRVPQVEGTYGNVTVNDVNAAEEEGLKIVKETGAYYVNQFNNEDNANSHYLTTGPEIWRQSGHNVDAFVATVGTAGTFAGTSRYLKEKNPNIKCFVVEPEGSQPIKGCPITKPLHLLQGSGYGCIPNLFNFDTMDGTLSVTDEEAVEYKNLIGEKEGLFVGFTSGANVAAAVKLLKSGLIPENSCLVTILNDTGLKYTPVAESLI
notes: as for B1
On to B11, for which, in series [11], the Km was 0.58 (±0.04) mM and the Vmax worked out at 2.09 µmol/min/mg.

B12: AcaBSAS2 (Anthocharis cardamines) (protein)
chain: MTKENGIPNEIKSSALDLIGETPLLALDRLHPGPGRILVKCEFNNPGASIKCRSAMHMIQEARAKGELKPGQPVLEVTSGNQGVGLAIVCAIYGHPLTATMSKGNSVQRAVHMEALGAKCIRVPQVEGTYGNVTINDVKAAEEEGLKIAKETGAYYVNQFNNDDNANSHYLTTGPEIWRQSGHHVDAFIATVGTAGTFAGTSRYLKEKNPDIQCYVVEPEGSQPIRGCEITKPLHLLQGSGYGCIPNLFKFETMDGTLSVTDEEAVRYKNLVGEKEGLYVGYTSGANVAAAVKLLKSGKLPEDAWVVTPLNDSGLKYTPVPDSLT
notes: as for B1
In the case of B12, in [12], the Km was 0.44 (±0.01) mM and the Vmax was 1.76 µmol/min/mg.
